Reference: the supplement of paper PMC10065799, “High-throughput profiling of sequence recognition by tyrosine kinases and SH2 domains using bacterial peptide display” (eLife, 2023)

Assays:
EPHB1 = EPHB1 (UniProt P54762); assay: phosphorylation enrichment, bacterial display (enrichment ratio); higher = better substrate or ligand; peptides without Tyr show the background
Jak2 = Jak2 (UniProt O60674); assay: as above
Fes = Fes (UniProt P07332); assay: as above
FGFR3 = FGFR3 (UniProt P22607); assay: as above
EPHB2 = EPHB2 (UniProt P29323); assay: as above
Fer (mouse) = assay: as above
FGFR1 = FGFR1 (UniProt P11362); assay: as above
c-Abl (mouse) = assay: as above
Fyn = Fyn (UniProt P06241); assay: as above
c-Src = assay: as above
AncSZ = assay: as above
MERTK = MERTK (UniProt Q12866); assay: as above
Hck = Hck (UniProt P08631); assay: as above
c-Src SH2 = assay: SH2 binding enrichment of the phosphorylated peptide, bacterial display (enrichment ratio); higher = better substrate or ligand; peptides without Tyr show the background
SHP2-C SH2 = assay: as above
Grb2 SH2 = Grb2 SH2 (UniProt P62993); assay: as above
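Wherever SH2 binding enrichment of the phosphorylated peptide, bacterial display is given: peptide library displayed on the E. coli surface as eCPX fusions, selected cells deep-sequenced, score is each peptide's frequency after selection divided by its frequency in the input.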
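Wherever phosphorylation enrichment, bacterial display is given: 11-residue human phosphosite peptides and single-mutation variants displayed on the E. coli surface, counted by deep sequencing, each peptide's frequency after selection divided by its frequency in the unselected input library; frequency after pTyr selection over input frequency; kinase dosed for 20-30% of maximal phosphorylation in three min.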

Chain of FGFR1 (P11362 whole entry, looked up): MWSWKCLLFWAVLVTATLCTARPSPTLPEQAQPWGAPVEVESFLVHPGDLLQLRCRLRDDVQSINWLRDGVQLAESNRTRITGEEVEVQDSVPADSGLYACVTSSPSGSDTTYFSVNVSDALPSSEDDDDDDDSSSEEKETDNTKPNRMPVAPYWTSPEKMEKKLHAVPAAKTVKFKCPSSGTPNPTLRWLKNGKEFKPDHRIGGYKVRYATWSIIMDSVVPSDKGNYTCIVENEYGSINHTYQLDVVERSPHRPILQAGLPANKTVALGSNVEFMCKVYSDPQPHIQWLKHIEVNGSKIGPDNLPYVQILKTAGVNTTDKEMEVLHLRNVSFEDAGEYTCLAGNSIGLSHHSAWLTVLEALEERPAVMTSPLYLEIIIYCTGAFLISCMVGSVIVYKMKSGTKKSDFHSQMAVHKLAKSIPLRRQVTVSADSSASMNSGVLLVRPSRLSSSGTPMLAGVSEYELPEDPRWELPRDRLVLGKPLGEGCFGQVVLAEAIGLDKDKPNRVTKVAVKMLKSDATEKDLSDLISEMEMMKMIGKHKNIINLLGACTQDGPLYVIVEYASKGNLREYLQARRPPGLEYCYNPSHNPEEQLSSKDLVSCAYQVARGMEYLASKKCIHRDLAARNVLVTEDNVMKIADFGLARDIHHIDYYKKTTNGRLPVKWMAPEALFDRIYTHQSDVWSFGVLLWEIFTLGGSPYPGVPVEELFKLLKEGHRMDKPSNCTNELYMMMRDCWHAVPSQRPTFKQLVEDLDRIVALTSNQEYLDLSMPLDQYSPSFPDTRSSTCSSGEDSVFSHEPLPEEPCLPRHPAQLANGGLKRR
Chain of EPHB1 (P54762 whole entry, looked up): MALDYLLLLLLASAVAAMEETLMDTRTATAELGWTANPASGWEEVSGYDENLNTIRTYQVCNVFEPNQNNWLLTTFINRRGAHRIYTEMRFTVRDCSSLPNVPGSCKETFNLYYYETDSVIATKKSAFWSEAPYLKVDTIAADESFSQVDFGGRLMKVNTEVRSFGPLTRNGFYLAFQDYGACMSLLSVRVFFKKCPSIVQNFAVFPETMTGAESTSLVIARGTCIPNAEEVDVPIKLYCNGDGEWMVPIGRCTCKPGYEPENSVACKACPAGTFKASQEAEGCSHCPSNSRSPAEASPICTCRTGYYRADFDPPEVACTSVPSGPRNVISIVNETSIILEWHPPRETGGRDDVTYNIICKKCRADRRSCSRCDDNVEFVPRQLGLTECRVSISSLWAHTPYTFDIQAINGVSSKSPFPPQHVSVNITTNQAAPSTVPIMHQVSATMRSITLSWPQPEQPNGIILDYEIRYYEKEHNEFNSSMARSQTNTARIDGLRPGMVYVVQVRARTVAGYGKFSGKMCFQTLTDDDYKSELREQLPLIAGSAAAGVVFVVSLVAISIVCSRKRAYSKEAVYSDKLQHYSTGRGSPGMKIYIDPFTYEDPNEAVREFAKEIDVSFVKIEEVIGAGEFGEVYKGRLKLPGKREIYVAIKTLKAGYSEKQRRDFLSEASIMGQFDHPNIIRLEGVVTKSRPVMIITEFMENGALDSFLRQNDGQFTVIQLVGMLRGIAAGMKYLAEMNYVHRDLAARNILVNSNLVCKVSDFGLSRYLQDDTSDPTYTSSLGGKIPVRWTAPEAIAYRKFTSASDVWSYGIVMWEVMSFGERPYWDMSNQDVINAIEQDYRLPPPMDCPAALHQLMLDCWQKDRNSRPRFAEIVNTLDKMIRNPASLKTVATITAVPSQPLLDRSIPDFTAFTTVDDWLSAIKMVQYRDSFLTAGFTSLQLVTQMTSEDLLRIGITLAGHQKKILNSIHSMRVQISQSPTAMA
Chain of Jak2 (O60674 whole entry, looked up): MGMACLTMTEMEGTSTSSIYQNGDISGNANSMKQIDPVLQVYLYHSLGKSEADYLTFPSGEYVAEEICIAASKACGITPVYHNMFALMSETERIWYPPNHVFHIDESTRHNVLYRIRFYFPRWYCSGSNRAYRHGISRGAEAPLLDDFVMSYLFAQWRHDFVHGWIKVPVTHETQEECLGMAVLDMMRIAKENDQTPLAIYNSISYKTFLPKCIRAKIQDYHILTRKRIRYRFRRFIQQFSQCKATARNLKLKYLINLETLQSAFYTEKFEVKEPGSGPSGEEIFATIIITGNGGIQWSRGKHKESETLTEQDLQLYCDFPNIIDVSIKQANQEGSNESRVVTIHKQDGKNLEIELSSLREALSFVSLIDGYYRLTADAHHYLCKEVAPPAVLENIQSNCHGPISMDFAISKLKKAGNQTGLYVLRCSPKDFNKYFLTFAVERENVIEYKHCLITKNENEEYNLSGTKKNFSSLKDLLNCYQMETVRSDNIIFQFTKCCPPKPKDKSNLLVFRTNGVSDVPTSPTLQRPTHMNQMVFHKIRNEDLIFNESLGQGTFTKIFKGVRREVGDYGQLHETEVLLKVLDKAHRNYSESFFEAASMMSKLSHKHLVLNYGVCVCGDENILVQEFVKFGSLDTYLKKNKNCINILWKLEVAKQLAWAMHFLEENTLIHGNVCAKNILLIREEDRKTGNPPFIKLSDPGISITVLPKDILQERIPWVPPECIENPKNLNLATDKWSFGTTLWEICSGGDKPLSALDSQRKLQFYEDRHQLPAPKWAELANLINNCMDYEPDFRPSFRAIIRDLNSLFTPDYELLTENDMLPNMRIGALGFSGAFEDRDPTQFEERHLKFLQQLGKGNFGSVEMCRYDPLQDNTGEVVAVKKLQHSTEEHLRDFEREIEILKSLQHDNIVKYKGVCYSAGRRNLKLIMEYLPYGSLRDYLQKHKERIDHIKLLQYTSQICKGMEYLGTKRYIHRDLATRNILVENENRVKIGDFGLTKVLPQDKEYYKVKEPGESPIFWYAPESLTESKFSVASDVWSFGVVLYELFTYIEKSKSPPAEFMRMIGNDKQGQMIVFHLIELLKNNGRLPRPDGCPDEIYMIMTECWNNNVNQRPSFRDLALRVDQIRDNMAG
Chain of Fyn (P06241 whole entry, looked up): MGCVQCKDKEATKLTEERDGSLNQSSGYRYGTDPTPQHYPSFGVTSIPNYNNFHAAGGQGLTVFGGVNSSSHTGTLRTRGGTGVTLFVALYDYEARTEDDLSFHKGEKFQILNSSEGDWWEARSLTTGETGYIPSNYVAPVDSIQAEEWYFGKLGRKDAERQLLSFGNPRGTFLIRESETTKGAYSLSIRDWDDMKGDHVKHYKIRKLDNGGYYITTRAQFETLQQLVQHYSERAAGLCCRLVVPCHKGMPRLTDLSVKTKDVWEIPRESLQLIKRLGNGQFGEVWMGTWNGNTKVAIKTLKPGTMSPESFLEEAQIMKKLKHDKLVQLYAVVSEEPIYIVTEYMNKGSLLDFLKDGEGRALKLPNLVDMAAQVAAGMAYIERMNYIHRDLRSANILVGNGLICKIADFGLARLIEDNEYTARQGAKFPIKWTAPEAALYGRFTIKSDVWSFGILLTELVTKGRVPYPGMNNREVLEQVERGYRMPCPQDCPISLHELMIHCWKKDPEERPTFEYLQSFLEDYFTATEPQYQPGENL
Chain of Hck (P08631 whole entry, looked up): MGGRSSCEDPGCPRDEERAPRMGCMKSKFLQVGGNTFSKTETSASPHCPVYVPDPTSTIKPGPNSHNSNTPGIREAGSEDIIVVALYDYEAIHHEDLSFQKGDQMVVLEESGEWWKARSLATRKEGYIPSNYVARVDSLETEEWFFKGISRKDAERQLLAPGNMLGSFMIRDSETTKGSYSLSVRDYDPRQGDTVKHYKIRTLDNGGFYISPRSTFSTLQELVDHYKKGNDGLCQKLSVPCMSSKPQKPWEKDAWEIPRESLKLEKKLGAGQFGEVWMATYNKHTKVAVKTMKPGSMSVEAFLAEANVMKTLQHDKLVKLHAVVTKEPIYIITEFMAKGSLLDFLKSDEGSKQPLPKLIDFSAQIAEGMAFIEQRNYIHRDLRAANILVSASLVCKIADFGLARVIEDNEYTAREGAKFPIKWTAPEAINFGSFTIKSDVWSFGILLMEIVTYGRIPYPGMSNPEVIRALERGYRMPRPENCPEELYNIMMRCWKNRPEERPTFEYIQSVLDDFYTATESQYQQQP
Chain of EPHB2 (P29323 whole entry, looked up): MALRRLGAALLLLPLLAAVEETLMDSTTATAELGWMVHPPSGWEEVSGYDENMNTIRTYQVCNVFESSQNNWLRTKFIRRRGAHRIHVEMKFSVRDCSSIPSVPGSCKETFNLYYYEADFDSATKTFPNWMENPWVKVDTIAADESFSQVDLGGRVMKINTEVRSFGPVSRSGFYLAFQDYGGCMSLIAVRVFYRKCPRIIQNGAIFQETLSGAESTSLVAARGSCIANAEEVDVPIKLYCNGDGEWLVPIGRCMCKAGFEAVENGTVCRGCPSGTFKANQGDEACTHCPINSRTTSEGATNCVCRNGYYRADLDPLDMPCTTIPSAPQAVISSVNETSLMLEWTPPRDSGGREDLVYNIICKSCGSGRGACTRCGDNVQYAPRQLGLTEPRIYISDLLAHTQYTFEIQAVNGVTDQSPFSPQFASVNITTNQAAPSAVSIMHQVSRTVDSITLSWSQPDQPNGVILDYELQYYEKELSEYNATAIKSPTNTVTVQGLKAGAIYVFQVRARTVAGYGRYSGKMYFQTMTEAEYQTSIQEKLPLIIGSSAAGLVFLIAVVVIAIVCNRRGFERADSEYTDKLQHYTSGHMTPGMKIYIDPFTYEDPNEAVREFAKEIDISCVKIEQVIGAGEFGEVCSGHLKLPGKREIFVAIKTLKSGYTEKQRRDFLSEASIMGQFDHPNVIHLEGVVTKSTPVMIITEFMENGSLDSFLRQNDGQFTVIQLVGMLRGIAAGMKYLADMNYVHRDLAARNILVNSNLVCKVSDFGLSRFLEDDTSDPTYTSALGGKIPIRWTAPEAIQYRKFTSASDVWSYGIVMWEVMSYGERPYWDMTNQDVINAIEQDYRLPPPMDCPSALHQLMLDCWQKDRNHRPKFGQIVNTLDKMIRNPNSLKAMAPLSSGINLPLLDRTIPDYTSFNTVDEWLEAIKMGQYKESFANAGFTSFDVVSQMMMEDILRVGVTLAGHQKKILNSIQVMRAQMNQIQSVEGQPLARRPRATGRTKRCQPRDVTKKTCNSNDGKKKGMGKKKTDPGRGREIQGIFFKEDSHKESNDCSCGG

Sequence | SH2 binding enrichment (c-Src SH2) | SH2 binding enrichment (SHP2-C SH2) | SH2 binding enrichment (Grb2 SH2) | phosphorylation enrichment (EPHB1) | phosphorylation enrichment (Jak2) | phosphorylation enrichment (Fes) | phosphorylation enrichment (FGFR3) | phosphorylation enrichment (EPHB2) | phosphorylation enrichment (Fer (mouse)) | phosphorylation enrichment (FGFR1) | phosphorylation enrichment (c-Abl (mouse)) | phosphorylation enrichment (Fyn) | phosphorylation enrichment (c-Src) | phosphorylation enrichment (AncSZ) | phosphorylation enrichment (MERTK) | phosphorylation enrichment (Hck)
QEVLEYFMKQM [PIK3CA_Y1038_A1035V] | 0.479 | 0.584 | 0.663 | 1.15 | 2.27 | 1.94 | 1.68 | 0.993 | 0.719 | 0.954 | 1.31 | 0.999 | 0.963 | 2.18 | 0.68 | 0.95
QGLRLYRSHLA [BTK_Y617_P619S] | 1.03 | 0.888 | 1.21 | 0.718 | 0.75 | 1.04 | 0.5 | 0.408 | 0.527 | 0.552 | 0.801 | 0.571 | 0.51 | 0.935 | 0.417 | 0.38
QGRQTYLLQPA [DDR2_Y813_P815L] | 0.618 | 0.895 | 1.21 | 0.5 | 0.726 | 0.514 | 0.484 | 0.529 | 0.388 | 0.63 | 0.693 | 0.462 | 0.701 | 0.498 | 0.555 | 0.411
QIGRKYKKVRF [F8_Y442_R437Q] | 0.321 | 0.622 | 0.675 | 0.902 | 1.62 | 1.04 | 1.11 | 0.44 | 0.836 | 0.807 | 0.502 | 0.795 | 1.03 | 0.84 | 0.923 | 1.19
QKFMAYLSQGW [HLCS_Y236_G241W] | 0.689 | 1.5 | 0.917 | 0.812 | 1.75 | 1.32 | 1.14 | 1.05 | 0.86 | 0.668 | 0.903 | 0.639 | 0.439 | 1.19 | 0.83 | 0.501
QMVGMYASSYM [AVPR2_Y124] | 1.23 | 0.946 | 0.806 | 1.21 | 0.659 | 1.07 | 0.783 | 1.09 | 1.07 | 0.611 | 0.921 | 1.11 | 1.45 | 1.27 | 2.74 | 1.3
QPGDIYHQTWA [GBA_Y244] | 0.439 | 0.352 | 0.626 | 0.825 | 0.938 | 0.963 | 2.69 | 0.88 | 1.3 | 3.42 | 2.9 | 3.11 | 3.42 | 0.989 | 2.84 | 3.66
QRCYVYYYSYL [PTEN_Y176_R173C] | 0.587 | 0.542 | 0.927 | 1.18 | 4.07 | 2.08 | 2.56 | 1.45 | 1.22 | 2.09 | 1.53 | 1.44 | 3.53 | 1.86 | 2.61 | 1.35
QRTMKYTTATG [MCCC1_Y41] | 0.473 | 0.432 | 0.85 | 0.314 | 0.449 | 0.669 | 0.518 | 0.7 | 0.722 | 0.692 | 0.727 | 0.475 | 0.411 | 0.602 | 0.524 | 0.551
QSSALYEDRYL [ASS1_Y83] | 0.653 | 0.493 | 0.711 | 3.12 | 1.01 | 1.12 | 0.74 | 2.45 | 7.79 | 0.56 | 0.61 | 0.997 | 1.2 | 1.15 | 1.1 | 4.44

Continued, in another order:

SH2 binding enrichment (c-Src SH2) | SH2 binding enrichment (SHP2-C SH2) | SH2 binding enrichment (Grb2 SH2) | Sequence | phosphorylation enrichment (EPHB1) | phosphorylation enrichment (Jak2) | phosphorylation enrichment (Fes) | phosphorylation enrichment (FGFR3) | phosphorylation enrichment (EPHB2) | phosphorylation enrichment (Fer (mouse)) | phosphorylation enrichment (FGFR1) | phosphorylation enrichment (c-Abl (mouse)) | phosphorylation enrichment (Fyn) | phosphorylation enrichment (c-Src) | phosphorylation enrichment (AncSZ) | phosphorylation enrichment (MERTK) | phosphorylation enrichment (Hck)
0.607 | 0.762 | 0.755 | QKLPSYILENN [VPS13B_Y2774] | 0.787 | 1.49 | 1.94 | 0.938 | 0.701 | 0.681 | 0.625 | 1.11 | 0.629 | 0.499 | 1.53 | 0.529 | 0.792
0.58 | 0.803 | 0.92 | QNTGDDYDLYG [PTPN11_Y62_Y62D] | 0.985 | 1.9 | 1.56 | 1.51 | 1.63 | 0.674 | 0.82 | 0.841 | 1.35 | 1.99 | 2.09 | 0.697 | 1.86
0.723 | 0.491 | 0.827 | QNTGDYCDLFG [PTPN11_Y62_Y63C_YF] | 9.89 | 1.3 | 1.41 | 3.7 | 8.46 | 0.966 | 5.82 | 1.17 | 0.681 | 0.789 | 3.53 | 0.806 | 0.696
0.849 | 0.725 | 0.911 | QNTGDYYDLYG [PTPN11_Y62] | 16.7 | 5.11 | 1.29 | 16.1 | 17.8 | 1.31 | 17.1 | 1.1 | 5.48 | 5.07 | 5.36 | 4.37 | 4.7
0.376 | 0.369 | 0.964 | QPDFLYDHIQP [TRRAP_Y862] | 5.27 | 1.21 | 1.74 | 1.45 | 3.31 | 12 | 0.622 | 0.928 | 6.9 | 5.86 | 2.58 | 7.66 | 9.82
0.499 | 0.851 | 0.887 | QSMEPYTKQQL [STAT3_Y640_V637M] | 0.454 | 0.736 | 1.02 | 0.692 | 0.66 | 0.546 | 0.51 | 0.445 | 0.462 | 0.401 | 0.851 | 0.579 | 0.696
